The source of these data is PMC5507929, “Structural and Biochemical Characterization of Apicomplexan Inorganic Pyrophosphatases” (Scientific Reports, 2017).

Data set [1] concerns the target Toxoplasma gondii soluble inorganic pyrophosphatase (TgPPase) (Toxoplasma gondii). As to the kind of experiment: SEC; TgPPase in solution (Supplementary Figure 1b); the sentence names no method; gel filtration analysis is named in p-0022. A general note: SEC sorts molecules by how far they enter the pores of the column.
The target in data set [2] is Plasmodium falciparum soluble inorganic pyrophosphatase (PfPPase), full length (Plasmodium falciparum). As to the kind of experiment: SEC; gel permeation chromatography on S-200 16/60; 30 mM HEPES-Na pH 7.2, 100 mM NaCl, 1 mM DTT; absorbance at 280 nm, compared with Mwt markers.
Data set [3] has the same target. The data set can be described thus: native gel or EMSA; blue native PAGE of purified recombinant PfPPase from E. coli.
Another data set has as its target T1, PfPPase (Plasmodium falciparum, UniProt O77392).
T1 construct: gene MAL3P6.3
T1 sequence (O77392 1-380): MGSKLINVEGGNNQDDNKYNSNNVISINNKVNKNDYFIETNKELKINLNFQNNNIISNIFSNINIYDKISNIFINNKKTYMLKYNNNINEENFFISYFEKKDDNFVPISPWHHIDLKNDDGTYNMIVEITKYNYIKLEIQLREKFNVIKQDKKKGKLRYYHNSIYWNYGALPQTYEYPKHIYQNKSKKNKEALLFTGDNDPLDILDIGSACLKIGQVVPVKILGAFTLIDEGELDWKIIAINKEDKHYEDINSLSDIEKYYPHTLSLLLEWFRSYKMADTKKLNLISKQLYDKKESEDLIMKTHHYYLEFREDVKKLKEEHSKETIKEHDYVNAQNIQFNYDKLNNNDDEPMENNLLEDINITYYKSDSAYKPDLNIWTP
The note with it: active site (P1 phosphate position), chains B and C; Se-Met protein crystallised with 1 mM PPi and 3 mM MgCl2.

Substrate in data set [4]: O=P(O)(O)OP(=O)(O)OP(=O)(O)O
The data set can be described thus: malachite green phosphate release assay. To be noted: 1 mM Zn2+, pH 7.0, 37 °C, 100 mM NaCl, pH 7.0. The format is biochemical, Plasmodium falciparum. The source says: (§1) malachite green phosphate release assay on PfPPase

Substrate in data set [5]: Nc1ncnc2c1ncn2[C@@H]1O[C@H](COP(=O)(O)OP(=O)(O)OP(=O)(O)O)[C@@H](O)[C@H]1O
As to the kind of experiment: malachite green phosphate release assay. To be noted: 1 mM Zn2+, pH 7.2, 37 °C, 100 mM NaCl, pH 7.2. The format is biochemical, Plasmodium falciparum.
Description: as §1

Substrate in data set [6]: O=P(O)(O)OP(=O)(O)O
As to the kind of experiment: malachite green phosphate release assay. The format is biochemical, Plasmodium falciparum. The note with it: 3 mM Mg2+, pH 7.2, 37 °C, 100 mM NaCl, 1.4 nM enzyme, pH 7.2.
Description: as §1

“And” between values parts separate entries of the source, which are not always exact repeats. Equal entries are not always repeated.

In data set [1], “Toxoplasma gondii soluble inorganic pyrophosphatase (TgPPase) (enzyme)” showed a stoichiometry N of 2.
Turning to “Plasmodium falciparum soluble inorganic pyrophosphatase (PfPPase), full length (enzyme)”, the stoichiometry N in data set [2] was 2 and 4; in data set [3], 2.
With `O=P(O)(O)O` [Pi], on PfPPase, the “X-ray crystal structure, 3.2 Å” value is on record as “PfPPase active site showed electron density for only one Pi molecule”.

B1: PfPPase (Plasmodium falciparum 3D7) (protein)
chain: T1 sequence (O77392 1-380)
notes: full length 1-380, pETM41, MBP-6xHis tag cleaved with TEV, E. coli BL21-CodonPlus; ~45 kDa, dimer; crystal protein Se-Met labelled
For B1, the results for the Km in data set [4], in data set [5] and in data set [6] were 1.6 ± 0.3 µM, 64 ± 4.2 µM and 10 ± 1.8 µM, respectively. In addition, the kcat in data set [4] came out at 26.3 ± 3 s⁻¹; in data set [5], 6.3 ± 1.2 s⁻¹; in data set [6], 266 ± 11.4 s⁻¹. The kcat/Km in data set [4] worked out at 1.6e+07 M⁻¹ s⁻¹; in data set [5], 90000 M⁻¹ s⁻¹; in data set [6] it was 2.66e+07 M⁻¹ s⁻¹.

As usually defined, the stoichiometry N is the number of molecules, sites or subunits per partner or assembly. What is called Km is the concentration of substrate that gives half-maximal velocity. In general, kcat refers to the maximal rate divided by the concentration of active sites. Broadly, the kcat/Km is the turnover number divided by the Michaelis constant.
